According to publication PMC10275983 (Nature Communications, 2023):
No end group written: not given here.

Target: S1-RBD (ACROBiosystems SPD-C82E9) (SARS-CoV-2 (Wuhan-Hu-1 strain), UniProt P0DTC2 319-541)
Assay: SPR
Conditions: both partners purified

Row | Binder | binding result
1 | ACANPDNPVCRFYCA (not fully specified (bridges); also: bicyclic peptide, scaffold not named) [E5 Bicycle (canonical exemplar of epitope group 5)] | binds
2 | ACEYVGPMCYRLYCA (not fully specified (bridges); also: Bicycle) [E1 Bicycle (exemplar of epitope group 1)] | binds
3 | ACPYVAGRGTCLLCA (not fully specified (bridges); cysteine pairing not given here) [E2 Bicycle (canonical exemplar of epitope group 2)] | binds
4 | ACEDNDWVYCSTCA (not fully specified (bridges); also: bicyclic peptide, scaffold not named) [E3 Bicycle (exemplar of epitope group 3)] | binds
